# In PMC13128273, “The interferon-stimulated gene product HERC5 inhibits human LINE-1 retrotransposition with an ISGylation-independent mechanism” (Nucleic Acids Research, 2026):
# B1: L1.3 ORF1p-T7 (natural protein)
# chain: MGKKQNRKTGNSKTQSASPPPKERSSSPATEQSWMENDFDELREEGFRRSNYSELREDIQTKGKEVENFEKNLEECITRITNTEKCLKELMELKTKARELREECRSLRSRCDQLEERVSAMEDEMNEMKREGKFREKRIKRNEQSLQEIWDYVKRPNLRLIGVPESDVENGTKLENTLQDIIQENFPNLARQANVQIQEIQRTPQRYSSRRATPRHIIVRFTKVEMKEKMLRAAREKGRVTLKGKPIRLTADLSAETLQARREWGPIFNILKEKNFQPRISYPAKLSFISEGEIKYFIDKQMLRDFVTTRPALKELLKEALNMERNNRYQPLQNHAKM
# notes: ORF1p of the human LINE-1 element L1.3, expressed from the full-length L1.3 in pTMF3 or pTMH3; residues counted from the first methionine of L1.3 ORF1p; From pTMH3 in the HERC5-3×FLAG IP and from pTMF3 in the ORF2p-3×FLAG IP; source: HEK293T, transfected, in lysate
# Target: L1.3 ORF2p-3×FLAG (human, UniProt O00370 1-1275)
# Experiment: co-IP; ORF2p-3×FLAG precipitated with anti-FLAG from lysate of HEK293T cells transfected with pTMF3 together with pCMV-3Tag-9, HERC5 or MOV10 vector; ORF1p-T7 detected by anti-T7 blot, band intensities given as ORF1p/ORF2p ratio relative to the control; pTMH3 as negative control
# Settings: partners not purified
# Chain of L1.3 ORF2p-3×FLAG (O00370 whole entry): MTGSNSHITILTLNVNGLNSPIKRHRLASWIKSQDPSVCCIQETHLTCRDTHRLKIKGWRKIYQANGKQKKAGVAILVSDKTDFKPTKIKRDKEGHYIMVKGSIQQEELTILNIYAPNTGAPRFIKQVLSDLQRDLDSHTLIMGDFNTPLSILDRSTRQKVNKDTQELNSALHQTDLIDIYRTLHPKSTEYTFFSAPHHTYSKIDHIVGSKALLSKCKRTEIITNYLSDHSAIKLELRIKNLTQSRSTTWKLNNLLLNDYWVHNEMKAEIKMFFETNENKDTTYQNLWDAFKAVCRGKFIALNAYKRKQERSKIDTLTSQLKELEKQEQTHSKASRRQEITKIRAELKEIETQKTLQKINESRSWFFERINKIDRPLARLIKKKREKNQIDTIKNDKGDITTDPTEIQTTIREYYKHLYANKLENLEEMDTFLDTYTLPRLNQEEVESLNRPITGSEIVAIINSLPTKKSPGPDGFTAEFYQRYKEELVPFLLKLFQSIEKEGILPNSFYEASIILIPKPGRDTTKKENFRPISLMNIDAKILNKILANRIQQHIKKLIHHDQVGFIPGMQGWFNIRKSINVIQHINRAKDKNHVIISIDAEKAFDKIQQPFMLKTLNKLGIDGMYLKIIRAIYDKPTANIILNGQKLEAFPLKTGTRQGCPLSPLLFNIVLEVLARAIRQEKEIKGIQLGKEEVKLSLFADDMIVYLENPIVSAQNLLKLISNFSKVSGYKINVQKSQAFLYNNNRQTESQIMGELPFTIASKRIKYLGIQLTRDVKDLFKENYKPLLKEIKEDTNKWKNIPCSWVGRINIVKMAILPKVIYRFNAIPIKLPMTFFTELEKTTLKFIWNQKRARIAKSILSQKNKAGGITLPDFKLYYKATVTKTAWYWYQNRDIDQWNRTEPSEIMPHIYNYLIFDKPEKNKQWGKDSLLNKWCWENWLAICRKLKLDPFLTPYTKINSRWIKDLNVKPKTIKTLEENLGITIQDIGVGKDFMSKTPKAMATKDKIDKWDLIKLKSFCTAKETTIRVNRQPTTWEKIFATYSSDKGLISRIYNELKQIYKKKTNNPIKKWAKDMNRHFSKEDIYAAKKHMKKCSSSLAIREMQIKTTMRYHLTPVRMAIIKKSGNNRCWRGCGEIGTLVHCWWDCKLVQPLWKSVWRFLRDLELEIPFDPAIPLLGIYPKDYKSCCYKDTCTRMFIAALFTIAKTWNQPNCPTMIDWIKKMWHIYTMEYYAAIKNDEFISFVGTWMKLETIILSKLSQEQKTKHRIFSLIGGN
binder,measurement,value
B1,"decrease of the ORF1p/ORF2p ratio in the ORF2p-3×FLAG IP with HERC5 overexpression, against the empty vector",~60%
